Experiment [1] has as its target T1, recombinant human FcRn (Sino Biological Inc. Cat. No. CT009-H08H) (human, UniProt P55899 24-290; P61769 21-119).
T1 construct: Bought protein; also called hFcRn (SINO); immobilized FcRn
Put plainly: scFv competition ELISA vs biotinylated parent murine antibody, captured FcRn, pH 6.
Description: (§1) A total of about 60 scFv antibodies from the VH CDR3 and VL CDR3 libraries were selected for further study. The scFv antibodies were prepared from bacterial periplasmic extracts, and tested by competition ELISA at pH 6.0 and pH 7.4. […] As in the ELISA used to test humanized variants, a 96 well flat bottom microtitre plate was pre-coated with 1 μg/ml of an FcRn antibody specific for an albumin-binding epitope distinct from the Fc-binding region. Binding was determined at pH 7.4 and pH 6.0.

In experiment [2] the target is T1, recombinant human FcRn (Sino Biological …). Put plainly: scFv competition ELISA vs biotinylated parent murine antibody, captured FcRn, pH 7.4.
Description: as §1
Experiment [3] concerns the target T2, FcRn (analyte of the BIACORE studies of Tables 9-11, tables titled anti-human FcRn mAbs) (human, UniProt P55899 24-290; P61769 21-119).
T2 construct: also called analyte (FcRn)
Put plainly: SPR, antibody captured on protein A, FcRn 50-0.02 nM, 1:1 model.
Description: For kinetic analysis, a 2-fold dilution range was selected from 50-0.02 nM FcRn. The association phase of FcRn analyte was monitored for 450 seconds, and dissociation was measured for 1500 seconds, at 40 μl/min. Fc1 was a reference channel and was subtracted from other flow cells to correct for non-specific binding. Kinetic values are based on a 1:1 binding model (Table 11).

Experiment [4] addresses T2, FcRn (analyte of the BIACORE studies of …). Put plainly: SPR (BIACORE), antibody immobilized on CM5, FcRn injected, 1:1 Langmuir, pH 6.0.
Description: (§2) Antibodies were diluted into 10 mM NaAc, pH 4.5, and immobilized onto BIACORE® CM5 chips to RU levels of approximately 500-1000. Analysis was performed by injection of FcRn at concentrations of 12-800 nM in 1×PBS-P at pH 7.4 or pH 6.0.
The target is the same in experiment [5]. Put plainly: SPR (BIACORE), antibody immobilized on CM5, FcRn injected, 1:1 Langmuir, pH 7.4.
Description: as §2

The values below come from patent US20200181262A1 (published 2020).

T1 sequence (P55899 24-290 limits assumed, chain 1 of 2): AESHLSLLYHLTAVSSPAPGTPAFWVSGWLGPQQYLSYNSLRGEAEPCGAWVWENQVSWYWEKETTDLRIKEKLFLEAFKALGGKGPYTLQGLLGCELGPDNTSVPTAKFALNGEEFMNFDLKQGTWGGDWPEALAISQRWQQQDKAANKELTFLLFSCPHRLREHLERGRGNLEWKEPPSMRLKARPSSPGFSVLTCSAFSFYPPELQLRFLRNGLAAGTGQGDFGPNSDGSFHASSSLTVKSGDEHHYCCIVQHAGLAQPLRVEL
T1 sequence (P61769 21-119 limits assumed, chain 2 of 2): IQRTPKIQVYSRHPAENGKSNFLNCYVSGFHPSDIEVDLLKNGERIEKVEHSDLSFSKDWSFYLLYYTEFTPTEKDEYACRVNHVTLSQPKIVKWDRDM
T2 sequence (P55899 24-290 limits assumed, chain 1 of 2): as the sequence (P55899 24-290 limits assumed, chain 1 of 2) above
T2 sequence (P61769 21-119 limits assumed, chain 2 of 2): as the sequence (P61769 21-119 limits assumed, chain 2 of 2) above

B1: H1 VH1 scFv with humanized parental Vκ1 (scFv)
scFv: QVQLVQSGAELKKPGASVKLSCKASGYTFTSYGISWVKQATGQGLEWIGEIYPRSGNTYYNEKFKGRATLTADKSTSTAYMELRSLRSEDSAVYFCARSTTVSPPPLWGTGTTVTVSSGGGGSGGGGSGGGGSDIQMTQSPSYLSASVGDRVTITCKASDHINNWLAWYQQKPGQAPRLLISGATSLETGVPSRFSGSGTGKDYTLTISSLQTEDFATYYCQQYWSTPYTFGGGTKVEIK
notes: from bacterial periplasmic extracts
For the molecule B1, the figures for the “fold decrease in IC50 (relative to humanized parent scFV)” value in experiment [1] and in experiment [2] were 17.1 fold and 36.4 fold, respectively.

B2: A4 VH1 scFv with humanized parental Vκ1 (scFv)
scFv: QVQLVQSGAELKKPGASVKLSCKASGYTFTSYGISWVKQATGQGLEWIGEIYPRSGNTYYNEKFKGRATLTADKSTSTAYMELRSLRSEDSAVYFCARSTTVSPADFRGTGTTVTVSSGGGGSGGGGSGGGGSDIQMTQSPSYLSASVGDRVTITCKASDHINNWLAWYQQKPGQAPRLLISGATSLETGVPSRFSGSGTGKDYTLTISSLQTEDFATYYCQQYWSTPYTFGGGTKVEIK
Turning to B2, the “fold decrease in IC50 (relative to humanized parent scFV)” value in experiment [1] turned out to be 5.04 fold; in experiment [2], 7.18 fold.

B3: A7 VH1 scFv with humanized parental Vκ1 (scFv)
scFv: QVQLVQSGAELKKPGASVKLSCKASGYTFTSYGISWVKQATGQGLEWIGEIYPRSGNTYYNEKFKGRATLTADKSTSTAYMELRSLRSEDSAVYFCARSTTVSPPPIWGTGTTVTVSSGGGGSGGGGSGGGGSDIQMTQSPSYLSASVGDRVTITCKASDHINNWLAWYQQKPGQAPRLLISGATSLETGVPSRFSGSGTGKDYTLTISSLQTEDFATYYCQQYWSTPYTFGGGTKVEIK
As for B3, the “fold decrease in IC50 (relative to humanized parent scFV)” value in experiment [1] turned out to be 17 fold; in experiment [2], 20 fold.

B4: C4 VH1 scFv with humanized parental Vκ1 (scFv)
scFv: QVQLVQSGAELKKPGASVKLSCKASGYTFTSYGISWVKQATGQGLEWIGEIYPRSGNTYYNEKFKGRATLTADKSTSTAYMELRSLRSEDSAVYFCARSTTVAPPRLWGTGTTVTVSSGGGGSGGGGSGGGGSDIQMTQSPSYLSASVGDRVTITCKASDHINNWLAWYQQKPGQAPRLLISGATSLETGVPSRFSGSGTGKDYTLTISSLQTEDFATYYCQQYWSTPYTFGGGTKVEIK
B4: the “fold decrease in IC50 (relative to humanized parent scFV)” value in experiment [1] amounted to 18.6 fold; in experiment [2], 24.4 fold.

B5: H4 VH1 scFv with humanized parental Vκ1 (scFv)
scFv: QVQLVQSGAELKKPGASVKLSCKASGYTFTSYGISWVKQATGQGLEWIGEIYPRSGNTYYNEKFKGRATLTADKSTSTAYMELRSLRSEDSAVYFCARSTTVSAPGVWGTGTTVTVSSGGGGSGGGGSGGGGSDIQMTQSPSYLSASVGDRVTITCKASDHINNWLAWYQQKPGQAPRLLISGATSLETGVPSRFSGSGTGKDYTLTISSLQTEDFATYYCQQYWSTPYTFGGGTKVEIK
Take B5: the “fold decrease in IC50 (relative to humanized parent scFV)” value in experiment [1] is 6.5 fold; in experiment [2], 9.29 fold.

B6: F7 VH1 scFv with humanized parental Vκ1 (scFv)
scFv: QVQLVQSGAELKKPGASVKLSCKASGYTFTSYGISWVKQATGQGLEWIGEIYPRSGNTYYNEKFKGRATLTADKSTSTAYMELRSLRSEDSAVYFCARSTTVAPPPLWGTGTTVTVSSGGGGSGGGGSGGGGSDIQMTQSPSYLSASVGDRVTITCKASDHINNWLAWYQQKPGQAPRLLISGATSLETGVPSRFSGSGTGKDYTLTISSLQTEDFATYYCQQYWSTPYTFGGGTKVEIK
In the case of B6, the “fold decrease in IC50 (relative to humanized parent scFV)” value in experiment [1] was 16.4 fold; in experiment [2] it was 26.4 fold.

B7: G4 VH1 scFv with humanized parental Vκ1 (scFv)
scFv: QVQLVQSGAELKKPGASVKLSCKASGYTFTSYGISWVKQATGQGLEWIGEIYPRSGNTYYNEKFKGRATLTADKSTSTAYMELRSLRSEDSAVYFCARSTTVSPPHLWGTGTTVTVSSGGGGSGGGGSGGGGSDIQMTQSPSYLSASVGDRVTITCKASDHINNWLAWYQQKPGQAPRLLISGATSLETGVPSRFSGSGTGKDYTLTISSLQTEDFATYYCQQYWSTPYTFGGGTKVEIK
Take B7: the results for the “fold decrease in IC50 (relative to humanized parent scFV)” value in experiment [1] and in experiment [2] were 18.9 fold and 29 fold, respectively.

B8: G9 VH1 scFv with humanized parental Vκ1 (scFv)
scFv: QVQLVQSGAELKKPGASVKLSCKASGYTFTSYGISWVKQATGQGLEWIGEIYPRSGNTYYNEKFKGRATLTADKSTSTAYMELRSLRSEDSAVYFCARSTTVSPPRVWGTGTTVTVSSGGGGSGGGGSGGGGSDIQMTQSPSYLSASVGDRVTITCKASDHINNWLAWYQQKPGQAPRLLISGATSLETGVPSRFSGSGTGKDYTLTISSLQTEDFATYYCQQYWSTPYTFGGGTKVEIK
Regarding B8, the “fold decrease in IC50 (relative to humanized parent scFV)” value is 21.7 fold in experiment [1] and 25.3 fold in experiment [2].

B9: E4 VH1 scFv with humanized parental Vκ1 (scFv)
scFv: QVQLVQSGAELKKPGASVKLSCKASGYTFTSYGISWVKQATGQGLEWIGEIYPRSGNTYYNEKFKGRATLTADKSTSTAYMELRSLRSEDSAVYFCARSTTVHPDHNWGTGTTVTVSSGGGGSGGGGSGGGGSDIQMTQSPSYLSASVGDRVTITCKASDHINNWLAWYQQKPGQAPRLLISGATSLETGVPSRFSGSGTGKDYTLTISSLQTEDFATYYCQQYWSTPYTFGGGTKVEIK
For the molecule B9, the results for the “fold decrease in IC50 (relative to humanized parent scFV)” value in experiment [1] and in experiment [2] were 3.65 fold and 16.8 fold, respectively.

B10: G7 VH1 scFv with humanized parental Vκ1 (scFv)
scFv: QVQLVQSGAELKKPGASVKLSCKASGYTFTSYGISWVKQATGQGLEWIGEIYPRSGNTYYNEKFKGRATLTADKSTSTAYMELRSLRSEDSAVYFCARSTTVAPPGHWGTGTTVTVSSGGGGSGGGGSGGGGSDIQMTQSPSYLSASVGDRVTITCKASDHINNWLAWYQQKPGQAPRLLISGATSLETGVPSRFSGSGTGKDYTLTISSLQTEDFATYYCQQYWSTPYTFGGGTKVEIK
In the case of B10, the “fold decrease in IC50 (relative to humanized parent scFV)” value in experiment [1] worked out at 17.7 fold; in experiment [2] it was 30.8 fold.

B11: H2 VH1 scFv with humanized parental Vκ1 (scFv)
scFv: QVQLVQSGAELKKPGASVKLSCKASGYTFTSYGISWVKQATGQGLEWIGEIYPRSGNTYYNEKFKGRATLTADKSTSTAYMELRSLRSEDSAVYFCARSTTVAPPAHWGTGTTVTVSSGGGGSGGGGSGGGGSDIQMTQSPSYLSASVGDRVTITCKASDHINNWLAWYQQKPGQAPRLLISGATSLETGVPSRFSGSGTGKDYTLTISSLQTEDFATYYCQQYWSTPYTFGGGTKVEIK
In the case of B11, the “fold decrease in IC50 (relative to humanized parent scFV)” value in experiment [1] was found to be 14.2 fold; in experiment [2] it was 23.8 fold.

B12: E7 VH1 scFv with humanized parental Vκ1 (scFv)
scFv: QVQLVQSGAEPKKPGASVKLSCKASGYTFTSYGISWVKQATGQGLEWIGEIYPRSGNTYYNEKFKGRATLTADKSTSTAYMELRSLRSEDSAVYFCARSTTVSPPHLWGTGTTVTVSSGGGGSGGGGSGGGGSDIQMTQSPSYLSASVGDRVTITCKASDHINNWLAWYQQKPGQAPRLLISGATSLETGVPSRFSGSGTGKDYTLTISSLQTEDFATYYCQQYWSTPYTFGGGTKVEIK
Take B12: the “fold decrease in IC50 (relative to humanized parent scFV)” value in experiment [1] was 16.4 fold; in experiment [2], 37.4 fold.

B13: H1VH1_Vκ2 antibody (antibody, IgG4, V domains shown)
VH: QVQLVQSGAELKKPGASVKLSCKASGYTFTSYGISWVKQATGQGLEWIGEIYPRSGNTYYNEKFKGRATLTADKSTSTAYMELRSLRSEDSAVYFCARSTTVSPPPLWGTGTTVTVSS
VL: DIQMTQSPSSLSASVGDRVTITCKASDHINNWLAWYQQKPGQAPRLLISGATSLETGVPSRFSGSGTGKDYTLTISSLQPEDFATYYCQQYWSTPYTFGGGTKVEIK
In experiment [3], B13 showed a Kd of 0.32 nM, a koff of 9.28e-05 s⁻¹ and a kon of 289000 M⁻¹ s⁻¹.

B14: VH1_G4/Vκ2_E8 IgG4 (antibody, V domains shown)
VH: QVQLVQSGAELKKPGASVKLSCKASGYTFTSYGISWVKQATGQGLEWIGEIYPRSGNTYYNEKFKGRATLTADKSTSTAYMELRSLRSEDSAVYFCARSTTVSPPHLWGTGTTVTVSS
VL: DIQMTQSPSSLSASVGDRVTITCKASDHINNWLAWYQQKPGQAPRLLISGATSLETGVPSRFSGSGTGKDYTLTISSLQTEDFATYYCHQYYSTPYTFGGGTKVEIK
notes: bivalent IgG4, kappa; also called G4VH1E8Vκ2
B14: in experiment [4], the Kd was determined as 1.3 nM, the koff was found to be 0.000298 s⁻¹ and the kon was determined as 229000 M⁻¹ s⁻¹. Further, in experiment [5], the Kd amounted to 13.1 nM, the dissociation rate constant (koff) worked out at 0.000544 s⁻¹ and the kon was 54300 M⁻¹ s⁻¹.

B15: VH1_A8/Vκ2_E8 IgG4 (antibody, V domains shown)
VH: QVQLVQSGAELKKPGASVKLSCKASGYTFTSYGISWVKQATGQGLEWIGEIYPRSGNTYYNEKFKGRATLTADKSTSTAYMELRSLKSEDSAVYFCARSTTVSPPAHWGTGTTVTVSS
VL: DIQMTQSPSSLSASVGDRVTITCKASDHINNWLAWYQQKPGQAPRLLISGATSLETGVPSRFSGSGTGKDYTLTISSLQTEDFATYYCHQYYSTPYTFGGGTKVEIK
notes: bivalent IgG4, kappa; also called A8VH1E8Vκ2; A8/E8VK2
In experiment [4], B15 displayed a Kd of 1.4 nM, a koff of 0.000438 s⁻¹ and a kon of 319000 M⁻¹ s⁻¹. In experiment [5], this molecule registered a Kd of 18.2 nM, a koff of 0.000679 s⁻¹ and a kon of 43800 M⁻¹ s⁻¹.
